The results in this text go back to patent publication US20250042956A1.

Test [1] addresses AT4G20400.1 JMJ14 (Arabidopsis thaliana), Q8GUI6. Nature of the test: IP-MS rep 1. The following applies: remark: other sources report otherwise.
Test [2] concerns the target T1, AT5G17690.1 LHP1 (Arabidopsis thaliana), Q946J8.
T1 chain: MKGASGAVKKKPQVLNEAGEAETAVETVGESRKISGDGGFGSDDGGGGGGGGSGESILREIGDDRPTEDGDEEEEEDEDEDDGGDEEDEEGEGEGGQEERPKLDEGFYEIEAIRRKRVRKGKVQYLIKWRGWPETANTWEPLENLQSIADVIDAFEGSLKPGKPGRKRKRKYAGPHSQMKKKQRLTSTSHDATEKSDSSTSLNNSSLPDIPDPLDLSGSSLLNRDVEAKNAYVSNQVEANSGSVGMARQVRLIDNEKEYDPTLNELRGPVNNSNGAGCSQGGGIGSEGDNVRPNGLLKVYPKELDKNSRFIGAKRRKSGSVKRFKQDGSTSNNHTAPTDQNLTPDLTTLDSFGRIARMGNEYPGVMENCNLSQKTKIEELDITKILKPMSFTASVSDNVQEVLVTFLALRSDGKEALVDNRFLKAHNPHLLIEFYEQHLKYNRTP
Nature of the test: IP-MS rep 1. The following applies: remark: other sources report otherwise.

Test [3] concerns the target AT4G20400.1 JMJ14 (Arabidopsis thaliana), Q8GUI6. The experiment in a line: IP-MS rep 2. The following applies: remark: other sources report otherwise.
The target of test [4] is T1, AT5G17690.1 LHP1 (Arabidopsis …). Nature of the test: IP-MS rep 2. The following applies: remark: other sources report otherwise.
The target of test [5] is AT4G20400.1 JMJ14 (Arabidopsis thaliana), Q8GUI6. The experiment in a line: X-link IP-MS. The following applies: remark: other sources report otherwise.
Test [6] addresses T1, AT5G17690.1 LHP1 (Arabidopsis …). Nature of the test: X-link IP-MS. The following applies: remark: other sources report otherwise.
In test [7] the target is T2, AT4G02020.1 SWN (Arabidopsis thaliana) (UniProt Q9ZSM8).
T2 sequence (looked up): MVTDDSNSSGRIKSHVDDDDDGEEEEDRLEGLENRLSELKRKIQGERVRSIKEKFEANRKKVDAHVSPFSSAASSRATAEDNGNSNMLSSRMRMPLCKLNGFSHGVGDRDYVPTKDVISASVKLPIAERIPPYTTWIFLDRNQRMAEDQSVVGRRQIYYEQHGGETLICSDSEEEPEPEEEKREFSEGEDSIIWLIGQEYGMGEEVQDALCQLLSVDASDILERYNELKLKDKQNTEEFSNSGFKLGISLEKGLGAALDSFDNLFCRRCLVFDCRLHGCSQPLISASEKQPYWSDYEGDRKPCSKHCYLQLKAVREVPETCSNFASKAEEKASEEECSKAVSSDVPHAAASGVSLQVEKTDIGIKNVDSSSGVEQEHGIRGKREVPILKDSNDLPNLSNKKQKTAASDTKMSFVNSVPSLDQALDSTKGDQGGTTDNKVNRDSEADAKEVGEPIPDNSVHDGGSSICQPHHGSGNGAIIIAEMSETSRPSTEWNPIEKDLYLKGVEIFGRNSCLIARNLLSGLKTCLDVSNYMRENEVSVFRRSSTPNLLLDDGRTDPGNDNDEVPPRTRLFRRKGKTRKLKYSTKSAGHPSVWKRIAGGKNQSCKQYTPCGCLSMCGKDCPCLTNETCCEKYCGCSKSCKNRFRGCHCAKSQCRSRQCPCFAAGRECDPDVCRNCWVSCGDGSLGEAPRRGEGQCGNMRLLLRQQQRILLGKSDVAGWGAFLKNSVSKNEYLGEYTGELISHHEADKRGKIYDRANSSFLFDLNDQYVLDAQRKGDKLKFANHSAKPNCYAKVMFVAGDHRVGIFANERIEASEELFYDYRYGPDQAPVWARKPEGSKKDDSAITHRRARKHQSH
Nature of the test: IP-MS rep 1.

For test [8], the target named is T2, AT4G02020.1 SWN (Arabidopsis thaliana). Nature of the test: IP-MS rep 2.
For test [9] the target is unchanged. The experiment in a line: X-link IP-MS.
Test [10] deals with T3, AT5G67580.1 TRB2 (Arabidopsis thaliana) (UniProt Q9FJW5).
T3 sequence: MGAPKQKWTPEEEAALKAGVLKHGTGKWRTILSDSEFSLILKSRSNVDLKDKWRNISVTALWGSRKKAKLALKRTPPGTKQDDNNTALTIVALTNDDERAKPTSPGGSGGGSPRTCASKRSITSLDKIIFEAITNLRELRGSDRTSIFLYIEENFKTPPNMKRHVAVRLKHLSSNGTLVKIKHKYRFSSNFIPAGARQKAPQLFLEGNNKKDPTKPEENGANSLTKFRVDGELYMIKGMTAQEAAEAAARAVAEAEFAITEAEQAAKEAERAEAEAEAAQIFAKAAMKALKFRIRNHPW
Nature of the test: IP-MS rep 1.

In test [11] the target is T3, AT5G67580.1 TRB2 (Arabidopsis thaliana). Nature of the test: IP-MS rep 2.
For test [12] the target is unchanged. Nature of the test: X-link IP-MS.
Test [13] addresses T4, AT3G49850.1 TRB3 (Arabidopsis thaliana) (UniProt Q9M2X3).
T4 sequence: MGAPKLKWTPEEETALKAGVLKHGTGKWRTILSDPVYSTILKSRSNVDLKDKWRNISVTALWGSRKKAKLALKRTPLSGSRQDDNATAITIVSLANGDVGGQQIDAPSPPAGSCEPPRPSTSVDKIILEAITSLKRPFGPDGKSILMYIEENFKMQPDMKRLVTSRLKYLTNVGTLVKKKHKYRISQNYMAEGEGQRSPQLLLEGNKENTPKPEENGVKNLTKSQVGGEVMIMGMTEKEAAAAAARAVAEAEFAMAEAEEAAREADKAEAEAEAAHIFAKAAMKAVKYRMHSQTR
Nature of the test: IP-MS rep 1.

The target of test [14] is T4, AT3G49850.1 TRB3 (Arabidopsis thaliana). The experiment in a line: IP-MS rep 2.
The target is the same in test [15]. Nature of the test: X-link IP-MS.
Test [16] addresses T5, AT5G17690.1 LHP1 (Arabidopsis thaliana) (UniProt Q946J8).
T5 sequence: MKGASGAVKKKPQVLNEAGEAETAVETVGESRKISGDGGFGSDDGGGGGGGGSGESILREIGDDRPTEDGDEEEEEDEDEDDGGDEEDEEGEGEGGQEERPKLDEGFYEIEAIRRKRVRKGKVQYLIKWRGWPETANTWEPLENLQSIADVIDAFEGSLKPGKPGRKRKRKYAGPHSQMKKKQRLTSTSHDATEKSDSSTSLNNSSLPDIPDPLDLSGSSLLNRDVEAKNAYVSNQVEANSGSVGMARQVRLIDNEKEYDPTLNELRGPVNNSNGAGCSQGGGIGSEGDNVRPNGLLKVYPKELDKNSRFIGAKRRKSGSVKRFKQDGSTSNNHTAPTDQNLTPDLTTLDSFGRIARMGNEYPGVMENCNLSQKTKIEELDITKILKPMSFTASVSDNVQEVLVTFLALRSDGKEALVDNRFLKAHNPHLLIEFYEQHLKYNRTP
Nature of the test: IP-MS rep 1.

For test [17], the target named is T5, AT5G17690.1 LHP1 (Arabidopsis thaliana). The experiment in a line: IP-MS rep 2.

AT4G20400.1 JMJ14 (Arabidopsis thaliana), Q8GUI6, sequence (Q8GUI6 whole entry): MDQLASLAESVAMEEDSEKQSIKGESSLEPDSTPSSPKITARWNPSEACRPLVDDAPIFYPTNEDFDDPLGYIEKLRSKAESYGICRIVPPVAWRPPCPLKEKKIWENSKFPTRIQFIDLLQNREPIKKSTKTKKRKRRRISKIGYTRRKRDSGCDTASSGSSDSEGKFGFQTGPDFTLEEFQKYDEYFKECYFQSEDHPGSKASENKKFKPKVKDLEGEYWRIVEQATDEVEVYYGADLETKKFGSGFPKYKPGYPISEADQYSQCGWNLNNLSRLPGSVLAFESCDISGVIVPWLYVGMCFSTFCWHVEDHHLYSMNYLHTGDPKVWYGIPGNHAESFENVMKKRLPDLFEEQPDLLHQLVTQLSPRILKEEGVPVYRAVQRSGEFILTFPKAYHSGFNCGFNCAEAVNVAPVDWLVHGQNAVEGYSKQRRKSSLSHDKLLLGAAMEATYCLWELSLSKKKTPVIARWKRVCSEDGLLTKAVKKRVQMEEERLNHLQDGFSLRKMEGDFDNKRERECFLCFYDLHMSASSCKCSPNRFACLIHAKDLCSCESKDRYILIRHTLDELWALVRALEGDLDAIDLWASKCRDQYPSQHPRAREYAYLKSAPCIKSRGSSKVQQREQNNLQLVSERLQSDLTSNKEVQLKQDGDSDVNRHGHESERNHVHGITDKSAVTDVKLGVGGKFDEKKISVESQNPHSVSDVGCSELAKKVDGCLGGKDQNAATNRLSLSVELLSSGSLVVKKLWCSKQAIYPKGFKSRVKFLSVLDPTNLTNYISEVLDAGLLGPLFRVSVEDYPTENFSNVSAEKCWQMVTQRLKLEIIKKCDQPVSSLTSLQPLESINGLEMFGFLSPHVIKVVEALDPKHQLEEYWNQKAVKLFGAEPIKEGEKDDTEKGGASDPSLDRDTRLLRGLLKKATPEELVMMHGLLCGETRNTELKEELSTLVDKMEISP

B1: FLAG-TRB1, Q8VWK4 1-300 (protein, not shown: small tags and cut ends)
chain: MGAPKQKWTQEEESALKSGVIKHGPGKWRTILKDPEFSGVLYLRSNVDLKDKWRNMSVMANGWGSREKSRLAVKRTFSLPKQEENSLALTNSLQSDEENVDATSGLQVSSNPPPRRPNVRLDSLIMEAIATLKEPGGCNKTTIGAYIEDQYHAPPDFKRLLSTKLKYLTSCGKLVKVKRKYRIPNSTPLSSHRRKGLGVFGGKQRTSSLPSPKTDIDEVNFQTRSQIDTEIARMKSMNVHEAAAVAAQAVAEAEAAMAEAEEAAKEAEAAEAEAEAAQAFAEEASKTLKGRNICKMMIRA
B1: the IP-MS count was 34 in test [1]; 0 in test [2]; 35 in [3]; 1 in test [4]; 77 in test [5]; 0 in test [6].

B2: FLAG-TRB1 (protein, not shown: small tags and cut ends)
chain: MGAPKQKWTQEEESALKSGVIKHGPGKWRTILKDPEFSGVLYLRSNVDLKDKWRNMSVMANGWGSREKSRLAVKRTFSLPKQEENSLALTNSLQSDEENVDATSGLQVSSNPPPRRPNVRLDSLIMEAIATLKEPGGCNKTTIGAYIEDQYHAPPDFKRLLSTKLKYLTSCGKLVKVKRKYRIPNSTPLSSHRRKGLGVFGGKQRTSSLPSPKTDIDEVNFQTRSQIDTEIARMKSMNVHEAAAVAAQAVAEAEAAMAEAEEAAKEAEAAEAEAEAAQAFAEEASKTLKGRNICKMMIRA
As to B2, the IP-MS count turned out to be 1 in test [7], 0 in test [8] and 2 in test [9].

B3: FLAG-TRB3 (protein, not shown: small tags and cut ends)
chain: MGAPKLKWTPEEETALKAGVLKHGTGKWRTILSDPVYSTILKSRSNVDLKDKWRNISVTALWGSRKKAKLALKRTPLSGSRQDDNATAITIVSLANGDVGGQQIDAPSPPAGSCEPPRPSTSVDKIILEAITSLKRPFGPDGKSILMYIEENFKMQPDMKRLVTSRLKYLTNVGTLVKKKHKYRISQNYMAEGEGQRSPQLLLEGNKENTPKPEENGVKNLTKSQVGGEVMIMGMTEKEAAAAAARAVAEAEFAMAEAEEAAREADKAEAEAEAAHIFAKAAMKAVKYRMHSQTR
Regarding B3, the IP-MS count in test [10] turned out to be 12; in test [11] it was 11; in test [12], 11.

B4: FLAG-TRB3, Q9M2X3 1-295 (protein, not shown: small tags and cut ends)
chain: MGAPKLKWTPEEETALKAGVLKHGTGKWRTILSDPVYSTILKSRSNVDLKDKWRNISVTALWGSRKKAKLALKRTPLSGSRQDDNATAITIVSLANGDVGGQQIDAPSPPAGSCEPPRPSTSVDKIILEAITSLKRPFGPDGKSILMYIEENFKMQPDMKRLVTSRLKYLTNVGTLVKKKHKYRISQNYMAEGEGQRSPQLLLEGNKENTPKPEENGVKNLTKSQVGGEVMIMGMTEKEAAAAAARAVAEAEFAMAEAEEAAREADKAEAEAEAAHIFAKAAMKAVKYRMHSQTR
In the case of B4, the figures for the IP-MS count in test [1], in [3] and in [5] were 13, 12 and 72, respectively.

B5: FLAG-TRB2 (protein, not shown: small tags and cut ends)
chain: MGAPKQKWTPEEEAALKAGVLKHGTGKWRTILSDSEFSLILKSRSNVDLKDKWRNISVTALWGSRKKAKLALKRTPPGTKQDDNNTALTIVALTNDDERAKPTSPGGSGGGSPRTCASKRSITSLDKIIFEAITNLRELRGSDRTSIFLYIEENFKTPPNMKRHVAVRLKHLSSNGTLVKIKHKYRFSSNFIPAGARQKAPQLFLEGNNKKDPTKPEENGANSLTKFRVDGELYMIKGMTAQEAAEAAARAVAEAEFAITEAEQAAKEAERAEAEAEAAQIFAKAAMKALKFRIRNHPW
As for B5, the IP-MS count in [13] is 0; in test [14], 0; in test [15] it was 4.

B6: TRBIP2 (bait of the TRBIP2 IP-MS) (protein, not shown: small tags and cut ends)
chain: MATNACLESDSLLPPRKRLLAGFKNQNSRISNESPSPPFASSSSSTTTSNGSSASAVVHTHHLDHLLNDQTRSPEELAQASKATAALAVKVAKAARATANEKAIIASKAVAAAKNALELFASFPAAETVSCKEPRLIRAINNSPRVLTDCSGHRNKKQKTLTSTMNDGNDVAGVVDSDDGTRVNGKLLLCDNTLKEKTEEESSSLGKRRGRVKLPLSMCAYKDQENGITLEENNLSVSKSEGYNGGVAQVIERPSWKCQDLKSPECVKQNKVVRS
For the molecule B6, the IP-MS count in test [16] was found to be 2; in test [17], 1.
